# Reference: the DeepSol protein solubility set
# Experiment: soluble on expression in E. coli; label from the status in PepcDB or PDB records
row,Sequence,soluble on expression in E. coli
1,MGSDKIHHHHHHMGCGVTVANASVYALPVRGNIVGALEAVTTHRDDTLLDIGRFYDLGYNQVTAANPGVNPWLPGQASKVVIPAEYILPPKPWTGIIVDIPARRIYYFPVNDRVVYTYPVGVFLPGWKEALTDTRIIAKFKMPAWNVPKNIHAWFEKKFHMDIPWYWPPGPENPMGELAMETGLSGIFIHGTYHPWGVGMRASQGCFQMFPENVAQLFPMVPVGTPVRIIDQPNLVGVRDGQVYLQSYKPMHAYHKKGIPELQRAVVTIKSFMERNRIEERIDWGMVRRIVTEHNTVALPIGVGAPSYATLSAALPATPYAYAPYGPSANGAAVPPPLPLASAADQEHLHVQVTFPDQKP,not soluble
2,GPGSMDAGSDEAVQKKMQEFLSKDAMEELRNIGDRTESRVRHGLLPRDYQQQQHQKDYQTANVTHEEEVNSYIQQRRTWRENVFLLRDFEYWRLRAEYYPYVRRGDEQNDNFFIRGIACHPRLSDYPMCRKPIQDYFVCRDKNKILQLFNLCAPMKEQFCACINEVFVKNHERGDKKFNAQRNEYFEEQRNRRLSKMMAHVEDSMEKRKKLQD,not soluble
3,QVQLQESGPGLVRPSQTLSLTCTVSGFSLTGYGVNWVRQPPGRGLEWIGMIWGDGNTDYNSALKSRVTMLKDTSKNQFSLRLSSVTAADTAVYYCARERDYRLDYWGQGSLVTVSSG,soluble
4,MGNASMTKTDIATRVHNHTWKLDPIVRSLIDTDFYKLLMLQMIWKLYPEVDATFSLINRTKTVRLAEEIDEMELREQLDHARTLRLSKKENIWLAGNTFYGRSQIFEPEFLSWLSSYQLPEYELFKRDGQYELNFHGRWMDTTLWEIPALSIINELRSRSAMRSLGYFTLDVLYARAKAKMWEKVERLRELPGLRISDFGTRRRHSFLWQRWCVEALKEGIGPAFTGTSNVLLAMDSDLEAVGTNAHELPMVVAALAQTNEELAAAPYQVLKDWNRLYGGNLLIVLPDAFGTAAFLRNAPEWVADWTGFRPDSAPPIEGGEKIIEWWRKMGRDPRTKMLIFSDGLDVDAIVDTYRHFEGRVRMSFGWGTNLTNDFAGCAPKTIASLKPISIVCKVSDANGRPAVKLSDNPQKATGDPAEVERYLKFFGEEDHKEQKVLVLEHHHHHH,not soluble
5,MSGAEQKVAYSLVSSGSLMSVNPGMARWIKELFCHNERVVLTGDWKHGFLSLTAVGATNVGSIRIHFN,not soluble
6,MAHHHHHHMSKAVQFSVLKQGSLEPGSWTQRVLTIDTKSDTVTISRKHHPEHVFYHSLEVAHVQMWPRYKASEISGHFNSLKAKMTLRIFGKQVPVPKMSVEAVTTADVAEMIRVPSVPSSISLDASLNIERPPVAAATLSQKQKERHPATATSANDDLCDSWMIRFTSIDSYELAVMLLRNMRNTEGKRKRLFGDHVLQDLERVQKAWAEETTGAKSIGGALRSGS,soluble
7,SSSSSSVPAYLGDEDLTQETRALISSLPKEKGWLVSEIYEFQGLWHTQAILQGILICQKRFEAKDSDIILVTNPKSGTTWLKALVFALLNRHKFPVSSSGNHPLLVTNPHLLVPFLEGVYYESPDFDFSSLPSPRLMNTHISHLSLPESVKSSSCKIVYCCRNPKDMFVSLWHFGKKLAPEETADYPIEKAVEAFCEGKFIGGPFWDHILEYWYASRENPNKVLFVTYEELKKQTEVEMKRIAEFLECGFIEEEEVREIVKLCSFESLSNLEVNKEGKLPNGIETKTFFRKGEIGGWRDTLSESLAEEIDRTIEEKFKGSGLKFSS,soluble
8,MDYVCSVVFICQSFDLIINRRVISFKKNSLFIVSDKIRRELPVCPSKLRIVDIDKKTCLSFFIDVNNELPGKFTLDKNGYIAEEEPPLSLVFSLFEGIKIADSHSLWLKERLCISLLAMFKKRESVNSFILTNINTFTCKITGIISFNIERQWHLKDIAELIYTSESLIKKRLRDEGTSFTEILRDTRMRYAKKLITSNSYSINVVAQKCGYNSTSYFICAFKDYYGVTPSHYFEKIIGVTDGINKTID,not soluble
9,MAHHHHHHMNTDERYKLLRSVGEECIQESELRNLIEKKPLIRCYDGFEPSGRMHIAQGIFKAVNVNKCTAAGCEFVFWVADWFALMNDKVGGELEKIRIVGRYLIEVWKAAGMDMDKVLFLWSSEEITSHADTYWRMVLDIGRQNTIARIKKCCTIMGKTEGTLTAAQVLYPLMQCCDIFFLKADICQLGLDQRKVNMLAREYCDLIGRKLKPVILSHHMLAGLKQGQAKMSKSDPDSAIFMEDTEEDVARKIRQAYCPRVKQSASAITDDGAPVATDDRNPVLDYFQCVVYARPGAAATIDGTTYATYEDLEQAFVSDEVSEDALKSCLIDEVNALLEPVRQHFASNEEAHELLEAVKSYRKDGATLPLAETALPAAPAKPHACMWMPALLKVPLDVAEGMIKVTKDFIAAHPEGTVTLVLPDWSAVASDEITGVEKDISAALQVNCALLKAYGLPSSVKIVTENEVILGNCDDFWVSVIGIARKNLLSHVEELYGGEVRNAGQVIAALMRVATALMLSVSHVISTSLDGHINAFAREYTKERIDCVQTLEGRIPALHRPGAAPAVLGADDVLYLDDNDMDIRRKIKKAYSAPNEEANPVISVAQHLLAQHGALSIERGEANGGNVSYNTPEALVADCGSGALHPADLKAAVLQLLLDRSAQARALLNGELKKNMTVLRNAEKKMAKKR,soluble
10,MAKSLTFSTFSPNNTLKKNVIPIVLLHGWGLNSGVWQPLLELFHRNDESIYQLITIDLPGFGINSAVDIKPYSLANICHHIEQVIDQPAIYLGWSLGGLIATEMSLKYPEKVLASITVASSPYFVEQPTDNWPGIKENVLESFHKQLAQDTAKTISGFLKIQAMGSPHIRQDLKLITQLVMAHTLPSQQTLADSLALLSNSDLRLHLSKIKQPLLRLYGHNDSLVPKEVMEKISYLAPNSDQHLFADASHAPFISHLDDFYQVLVVWLDSHFNLEHHHHHH,not soluble
11,SSKVEQLRAQLNERILVLDGGMGTMIQSYRLNEADFRGERFADWPCDLKGNNDLLVLSKPEVIAAIHNAYFEAGADIIETNTFNSTTIAMADYQMESLSAEINFAAAKLARACADEWTARTPEKPRYVAGVLGPTNRTASISPDVNDPAFRNITFDQLVAAYRESTKALVEGGADLILIETVFDTLNAKAAVFAVKTEFEALGVELPIMISGTITDASGRTLSGQTTEAFYNSLRHAEALTFGLNCALGPDELRQYVQELSRIAECYVTAHPNAGLPNAFGEYDLDADTMAKQIREWAEAGFLNIVGGCCGTTPQHIAAMSRAVEGLAPRKLPEIPVACRLSGLEPLNIGEDSLFVNVGERTNVTGSAKF,not soluble
12,MFPCLCTLKILTFQPKFQKIHDEMKALKAAGKQDEFAKKFVTKDAIFMGPLHEPANVTEAAKFAKSEMMAAVSKGEFNITIDEITPIGDVVIERCTIHAKVASGDKTGWSLCVWVKDGGAWKIRNSCTTFKVVPSA,not soluble
13,MGSDKIHHHHHHMTGIPTHKAVQQSDFGIFAKEVSPFSPNRTINYVHRDDYYILGVVKSGTCHVSIDFKEYVFSAGDVVCTQPNQVHHIIDTGNADVLLLFIDGVFIDTPTKQIIAEYVLSPVPFKINDIQYTDLGQLFSMILRRMNGGNPDCKSKAVIQNLSCAIVGIITDNIQKYIGQNHKNRRHIEITLALKALFSEEKQLNRSVSYYAEALHISPVYLNEVVKNVTGESVSKYIQNELILRAKRMLVYTSLNVREISIDLGIEDYAYFTRLFTKAVGVNPTSYRKKYLE,not soluble
14,SRLKLFSILSMMLLRPKDTVDSQGQFRGYLDMVINDILAPNLQWHAGRTAAAIRTAAISCLWALISSDILSAKQVQEAQETLMPQVLATLEDDSQTTRLMSCRIINMFLKNSGDTMEPEKFLKVYPELLKRLDDVSNDVRMAAASALLTWLKCIESLDGKSAYQSSVQFLYRELLVHLDDPESAIQDTVLEVLKEGSVLFPDVLVRETEAVVHKHRSATYCEQLLQHMQTMAAAR,soluble
15,MSLTIPDSTPSDFSHEFFGSLDPQALAHPDSIKWQHYGEGVIPMWIADMDFPVAPPILRALEDRLTRGLGYPLGRDDRLIADLQTKWASQGLTDVPADGIHFTPSVVPGLYAGVHGLTEPGDRVVTMTPIYHPFHLAINDLGREVAAAPLREGDTRWEIDWDALERAAEGARLLMLCHPHNPCGRVWDADELARLRELVLAHDLYVISDELHADLRFTDAPFEAFAADPRVRDRTLTVTGPCKAFNTAGLGIGVMVTHDPELLARVQRRVAGLGGHPSALSFTMWRVALEDGGPWLARTVEYLRGNRDFMTAFLRERLPWVRFTVPEATYLAWLDLREHPEAGRIQEFLLEEAKVAVHNGPTFAPGEQGAAYQGFIRVNFATSRAILTEALERMARALDTRQEGHHHHHH,soluble
16,MFKKLKASLGIGSAKVDTILDEMSVFQGATLKGHVHIKGGDVEQQIDAITIKLNTEMKVEVDDSVSYQTFTIDQLKAVDPFVIQPNEEKQVPFELKLHDETPITAVSALKNQCNVWVETTLDIDFAIDPRDRDYIEVKPLPVASRVIRAIEQAGFTMVKADVEKGFLRGGSFASRSGIYQELEFRNSGFVSSKEIELSFILEGQVMHCLAEIDRSLSFSGDQYRSFTLPINATDAQVAAAVAPTLSL,not soluble
17,MEQQNTLNDIKQTIVFNASIQKVWSVVSTAEGIASWFMPNDFVLEVGHEFHVQSPFGPSPCKVLEIDEPNHLSFSWDTDGWVVSFDLKDLGDNKTEFTLIHGGWKHPDEILPKANAKSSIIRDRMSGGWVAIVNEKLKKVVEG,soluble
18,MGSDKIHHHHHHMEPEASPLFIDFAGISAGEKILDVGCGTGSLTFALLKAADLKEITAIDDSPVFVAETIRRSTDPRIKVEQGDACALAFDDGAFDRALALLVLHFVTDAGKAVAEMRRVVRPGGVVAASVWDHLGGMPGMRMMVDTVAALSEAGRQFRERYCFQPMMRPGEMKATFIEQGLLQVSETQLMIRMDYSNFDDYWSPMVAGEGPFGKFLSSLDAPDRARAEAAVREAYQAGQPDGPRSFANVAWACRGIAP,not soluble
19,MHHHHHHSSGVDLGTENLYFQSMAHNKIPPRWLNCPRRGQPVAGRFLPLKTMLGPRYDSQVAEENRFHPSMLSNYLKSLKVKMGLLVDLTNTSRFYDRNDIEKEGIKYIKLQCKGHGECPTTENTETFIRLCERFNERNPPELIGVHCTHGFNRTGFLICAFLVEKMDWSIEAAVATFAQARPPGIYKGDYLKELFRRYGDIEEAPPPPLLPDWCFEDDEDEDEDEDGKKESETGSSASFG,soluble
20,MKERFMSKFAIVFPGQGSQAVGMLADLAEQYAVVKQTFAEASEVLGYDLWALVQDGPVEDLNQTFRTQPALLAASVAIWRVWQQLGLEQPAVLAGHSLGEYSALVCAGVIDFKQAIKLVELRGQLMQQAVPAGTGAMYAIIGLEDEAIAKACADAAQGEVVSPVNFNSPGQVVIAGQKDAVERAGVLCKEAGAKRALPLPVSVPSHCALMKPAADELAKTLAELEFNAPQIPVINNVDVVAETDPVKIKDALIRQLYSPVRWTECVEQMSAQGVEKLIEMGPGKVLTGLTKRIVKTLEGVAVNDVASLDAVK,soluble
21,MAYWLMKSEPDELSIEALARLGEARWDGVRNYQARNFLRAMSVGDEFFFYHSSCPQPGIAGIARITRAAYPDPTALDPESHYHDAKATTDKNPWSAVDVAHVQTFPRVLELGRLKQQAGLVELPLVQKGSRLSVMPVTPEQWAVIVALRLEHHHHHH,soluble
22,MAKRKKKEVFDWEDEDQEEIIWVSKSEIKRDAEDLKQLGEKIVNLTKANLAKIPLDESLLDAIELAQRLQKEARRRQLQYIGKLFRGIDVEPIREALDKIENKHNQQQAMLHKIEKVRDELVEKGDVALTDLLNDYPNGDRQQLRNLIRSAQKELEQNKPSKAYREIYQMLKVLMLED,not soluble
